Key:
Assay in all cases: co-IP with mass spectrometry
RPL36A = details: cross-linked in vivo with formaldehyde, p value 0.13485
TY1B-BR = details: cross-linked in vivo with formaldehyde, p value 0.09425
ARF2 = details: cross-linked in vivo with formaldehyde, p value 0.05060
HOM2 = details: cross-linked in vivo with formaldehyde, p value 0.02371
ADO1 = details: cross-linked in vivo with formaldehyde, p value 0.02371
RPL13A/B = details: cross-linked in vivo with formaldehyde, p value 0.05060
ENO1 = details: cross-linked in vivo with formaldehyde, p value 0.14901
TY1B-ER1 = details: cross-linked in vivo with formaldehyde, p value 0.21132
SUP35 = details: cross-linked in vivo with formaldehyde, p value 0.08282
HHF1 = details: cross-linked in vivo with formaldehyde, p value 0.08671
PFK2 = details: cross-linked in vivo with formaldehyde, p value 0.14162
REP1 = details: cross-linked in vivo with formaldehyde, p value 0.25926

ratio to parent (RPL36A): > 4
other: sum (RPL36A; parent: 0): 4
ratio to parent (TY1B-BR): > 9
other: sum (TY1B-BR; parent: 0): 9
ratio to parent (ARF2): 2.5
other: sum (ARF2; parent: 2): 5
ratio to parent (HOM2): 2
other: sum (HOM2; parent: 4): 8
ratio to parent (ADO1): 5
other: sum (ADO1; parent: 1): 5
ratio to parent (RPL13A/B): 2.2
other: sum (RPL13A/B; parent: 5): 11
ratio to parent (ENO1): 3.5
other: sum (ENO1; parent: 2): 7
ratio to parent (TY1B-ER1): > 6
other: sum (TY1B-ER1; parent: 0): 6
ratio to parent (SUP35): 2.14
other: sum (SUP35; parent: 7): 15
ratio to parent (HHF1): 2
other: sum (HHF1; parent: 4): 8
ratio to parent (PFK2): 6
other: sum (PFK2; parent: 1): 6
ratio to parent (REP1): 2
other: sum (REP1; parent: 2): 4
Substance: N-terminal 3xHA-tagged wild-type Irc20 (from UniProt Q06554) C1239A

Source: PMC3796546
